Patent US6106844A, “Immunomodulatory peptides of vespid antigen 5” (The Rockfeller University, priority 1998, dated 2000)

Key:
Type in all cases: cell-based
[1] = tested on: r-Ag5 specific spleen cells from P/J mice; assay: In vitro proliferation assay, spleen cells of r-Ag5-immunized P/J mice; settings: spleen cells from mice immunized 5 times with rAg5; blank 1730 cpm
Protocol: (§1) FIG. 12. Stimulation index profile of P/J mice spleens after 5 immunizations with r-Ag5. In vitro proliferation assays were performed with peptides at three concentrations: 1×10^-5 M (open bar), 1.25×10^-6 M ("uphill" hatch), and 1.56×10^-7 M ("downhill" hatch). The corresponding concentrations of recombinant Antigen 5 were 1.0 ×10^-6 M, 1.25×10^-7, and 1.56×10^-8 M. The blank was 1730 cpm.
(§2) The peptides of the invention can be tested in a proliferation assay for T cell responses. Generally, lymphocytes from a sensitized host are obtained. The host can be a mouse that has been immunized with a vespid venom antigen 5, or with a crossreactive protein, such as testes specific protein. Using techniques that are well known in the art, T lymphocyte response to the peptide can be measured in vitro. In a specific embodiment, infra, T cell responses are detected by measuring incorporation of ^3 H-thymidine, which increases with DNA synthesis associated with proliferation. Cell proliferation can also be detected using an MTT assay [Mossman, J. Immunol. Methods, 65:55-63,(1983); Niks and Otto, J. Immunol. Methods, 130:140-151 (1990)]. […] Alternatively, mRNA for lymphokines can be detected, e.g., by amplification [see Brenner, et al., Biotechniques, 7:1096 (1989)] or in situ hybridization [see, e.g., Kasaian and Biron, J. Immunol., 142:1287 (1989)]. […]

[2] = tested on: r-Ag5 specific spleen cells from C3H/He mice; assay: In vitro proliferation assay, spleen cells of r-Ag5-immunized C3H/He mice; settings: spleen cells from mice immunized 5 times with rAg5; blank 3130 cpm
Protocol: as §1, with “13.” for “12.”, “C3H/He” for “P/J”, “1.0×10^-6” for “1.0 ×10^-6”, “3130” for “1730”
as §2

[3] = tested on: Ag5 specific spleen cells from BALB/c mice; assay: In vitro proliferation assay, spleen cells of Ag5-immunized BALB/c mice; settings: spleen cells from mice immunized with rAg5; blank 3970 cpm
Protocol: (§3) FIG. 4. Stimulation index profile of BALB/c mice spleens after 4 immunizations with natural (n)-Ag5. In vitro proliferation assays were performed with peptides at three concentrations: 1×10^-5 M (open bar), 1.25×10^-6 M ("uphill" hatch), and 1.56×10^-7 M ("downhill" hatch). The corresponding concentrations of recombinant antigen 5 control were 1.0×10^-6 M, 1.25×10^-7, and 1.56×10^-8 M. The blank was 2200 cpm.
as §3, with “5.” for “4.”, “recombinant (r)-Ag5.” for “natural (n)-Ag5.”, “Antigen” for “antigen”, “5” for “5 control”, “4700” for “2200”
FIG. 6. […] In vitro proliferation assays were performed with peptides at three concentrations: 1×10^-5 M (open bar), 1.25×10^-6 M ("uphill" hatch), and 1.56×10^-7 M ("downhill" hatch). The corresponding concentrations of recombinant Antigen 5 were 1.0×10^-6 M, 1.25×10^-7, and 1.56×10^-8 M. […]
(§4) The peptides of the invention can be tested in a proliferation assay for T cell responses. Generally, lymphocytes from a sensitized host are obtained. The host can be a mouse that has been immunized with a vespid venom antigen 5, or with a crossreactive protein, such as testes specific protein. Using techniques that are well known in the art, T lymphocyte response to the peptide can be measured in vitro. In a specific embodiment, infra, T cell responses are detected by measuring incorporation of ^3 H-thymidine, which increases with DNA synthesis associated with proliferation. Cell proliferation can also be detected using an MTT assay [Mossman, J. Immunol. Methods, 65:55-63,(1983); Niks and Otto, J. Immunol. Methods, 130:140-151 (1990)]. Alternatively, lymphokine production assays can be practiced according to the present invention. In one embodiment, lymphokine production can be assayed using immunological or co-stimulation assays [see, e.g., Fehlner et al., J. Immunol., 146:799 (1991)] or using the ELISPOT technique [Czerkinsky, et al., J. Immunol. Methods, 110:29 (1988)]. Alternatively, mRNA for lymphokines can be detected, e.g., by amplification [see Brenner, et al., Biotechniques, 7:1096 (1989)] or in situ hybridization [see, e.g., Kasaian and Biron, J. Immunol., 142:1287 (1989)]. Of particular interest are those individuals whose T cells produce lymphokines associated with IgE isotype switch events, e.g., IL-4 and IL-5 [Purkeson and Isakson, J. Exp. Med., 175:973-982 (1992)]. Also of interest are the peptide fragments of the vespid venom antigen 5 that contain epitopes recognized by T cells involved in IgE switch events. […]

[4] = tested on: r-Ag5 specific spleen cells from ASW/Sn mice; assay: In vitro proliferation assay, spleen cells of r-Ag5-immunized ASW/Sn mice; settings: spleen cells from mice immunized 5 times with rAg5; blank 5640 cpm
Protocol: as §1, with “11.” for “12.”, “ASW/sn” for “P/J”, “1.0×10^-6” for “1.0 ×10^-6”, “5640” for “1730”
as §4

B1: r-Ag5: recombinant white faced hornet (Dolichovespula maculata) antigen 5 form 2, Dol m 5.02 (protein)
chain: NNYCKIKCSRGIHTLCKFGTSMKPNCGSKLVKVHGVSNDEKNEIVNRHNQFRQKVAKGLETRGNPGPQPPAKNMNVLVWNDELAKIAQTWANQCSFGHDQCRNTEKYQVGQNVAIASTTGNSYATMSKLIEMWENEVKDFNPKKGTMGDNNFSKVGHYTQMVWGKTKEIGCGSVKYIENNWHTHYLVCNYGPAGNYMDQPIYERK
- Stimulation Index P/J [1]: 20.8
- Stimulation Index C3H/He [2]: 12.3
- Stimulation Index BALB/c [3]: 20.9
- Stimulation Index ASW/Sn [4]: 15.4
